Test results reported in IntAct's records for PubMed 15930137.

B1: E3 ubiquitin-protein ligase NHLRC1 (Homo sapiens), Q6VVB1 (parent)
chain: MAAEASESGPALHELMREAEISLLECKVCFEKFGHRQQRRPRNLSCGHVVCLACVAALAHPRTLALECPFCRRACRGCDTSDCLPVLHLIELLGSALRQSPAAHRAAPSAPGALTCHHTFGGWGTLVNPTGLALCPKTGRVVVVHDGRRRVKIFDSGGGCAHQFGEKGDAAQDIRYPVDVTITNDCHVVVTDAGDRSIKVFDFFGQIKLVIGGQFSLPWGVETTPQNGIVVTDAEAGSLHLLDVDFAEGVLRRTERLQAHLCNPRGVAVSWLTGAIAVLEHPLALGTGVCSTRVKVFSSSMQLVGQVDTFGLSLYFPSKITASAVTFDHQGNVIVADTSGPAILCLGKPEEFPVPKPMVTHGLSHPVALTFTKENSLLVLDTASHSIKVYKVDWG
partner: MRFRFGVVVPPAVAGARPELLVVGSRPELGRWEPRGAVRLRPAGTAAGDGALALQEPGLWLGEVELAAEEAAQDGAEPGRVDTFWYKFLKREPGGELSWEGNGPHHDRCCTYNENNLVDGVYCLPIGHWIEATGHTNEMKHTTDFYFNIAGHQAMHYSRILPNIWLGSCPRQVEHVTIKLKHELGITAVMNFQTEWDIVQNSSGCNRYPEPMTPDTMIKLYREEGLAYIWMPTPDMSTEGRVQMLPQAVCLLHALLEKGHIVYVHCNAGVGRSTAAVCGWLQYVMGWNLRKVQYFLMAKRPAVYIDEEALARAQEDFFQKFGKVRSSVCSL

Variants of: B1
Settings: with epm2a_human EPM2A

Q: For MAAEASESGPALHELMREAEISLLECKVCFEKFGHRQQRRPRNLSCGHVVCLACVAALAHPRTLALECPFCRRACRGCDTSDCLPVLHLIELLGSALRQSPAAHRAAPSAPGALTCHHTFGGWGTLVNPTGLALCPKTGRVVVVHDGRRRVKIFDSGGGCAHQFGEKGDAAQDIRYPVDVTITNDCHVVVTDAGDRSIKVFDFFGQIKLVIGGQFSLPWGVETTPQNGIVVTDAEAGSLHLLDVDFAEGVLRRTERLQAHLCNPRGVAVSWLTGAIAVLKHPLALGTGVCSTRVKVFSSSMQLVGQVDTFGLSLYFPSKITASAVTFDHQGNVIVADTSGPAILCLGKPEEFPVPKPMVTHGLSHPVALTFTKENSLLVLDTASHSIKVYKVDWG [E280K], which “effect of a mutation on the interaction” value is on record?
A: Its value is “disrupting interaction”.

Q: Which “effect of a mutation on the interaction” value does the source give for MAAEASESGPALHELMREAEISLLECKVCFEKFGHRQQRRPRNLSCGHVVCLACVAALAHPRTLALECPFCRRACRGCDTSDCLPVLHLIELLGSALRQSPAAHRAAPSAPGALTCHHTFGGWGTLVNPTGLALCPKTGRVVVVHDGRRRVKIFDSGGGCAHQFGEKGDAAQDIRYPVDVTITNDCHVVVTDAGDRSIKVFDFFGQIKLVIGGQFSLPWGVETTPQNGIVVTDAEAGSLHLLDVDFAEGVLRRTERLQAHLCNPRGVAVSWLTGAIAVLEHPLALGTGVCSTRVKVFSSSMPLVGQVDTFGLSLYFPSKITASAVTFDHQGNVIVADTSGPAILCLGKPEEFPVPKPMVTHGLSHPVALTFTKENSLLVLDTASHSIKVYKVDWG [Q302P] here?
A: The value was “disrupting interaction”.

Variants of: B1
Settings: with epm2a_human EPM2A
Remark: another data set of the same source

Q: How did the “effect of a mutation on the interaction” value turn out when MAAEASESGPALHELMREAEISLLECKVCFEKFGHRQQRRPRNLSCGHVVCLACVAALAHPRTLALECPFCRRACRGCDTSDCLPVLHLIELLGSALRQSPAAHRAAPSAPGALTCHHTFGGWGTLVNPTGLALCPKTGRVVVVHDGRRRVKIFDSGGGCAHQFGEKGDAAQDIRYPVDVTITNDCHVVVTDAGDRSIKVFDFFGQIKLVIGGQFSLPWGVETTPQNGIVVTDAEAGSLHLLDVDFAEGVLRRTERLQAHLCNPRGVAVSWLTGAIAVLKHPLALGTGVCSTRVKVFSSSMQLVGQVDTFGLSLYFPSKITASAVTFDHQGNVIVADTSGPAILCLGKPEEFPVPKPMVTHGLSHPVALTFTKENSLLVLDTASHSIKVYKVDWG [E280K] was run?
A: The value was “decreasing interaction”.

Q: How did the “effect of a mutation on the interaction” value turn out when MAAEASESGPALHELMREAEISLLESKVCFEKFGHRQQRRPRNLSCGHVVCLACVAALAHPRTLALECPFCRRACRGCDTSDCLPVLHLIELLGSALRQSPAAHRAAPSAPGALTCHHTFGGWGTLVNPTGLALCPKTGRVVVVHDGRRRVKIFDSGGGCAHQFGEKGDAAQDIRYPVDVTITNDCHVVVTDAGDRSIKVFDFFGQIKLVIGGQFSLPWGVETTPQNGIVVTDAEAGSLHLLDVDFAEGVLRRTERLQAHLCNPRGVAVSWLTGAIAVLEHPLALGTGVCSTRVKVFSSSMQLVGQVDTFGLSLYFPSKITASAVTFDHQGNVIVADTSGPAILCLGKPEEFPVPKPMVTHGLSHPVALTFTKENSLLVLDTASHSIKVYKVDWG [C26S] was run?
A: The value was “decreasing interaction”.

Q: MAAEASESGPALHELMREAEISLLECKVCFEKSGHRQQRRPRNLSCGHVVCLACVAALAHPRTLALECPFCRRACRGCDTSDCLPVLHLIELLGSALRQSPAAHRAAPSAPGALTCHHTFGGWGTLVNPTGLALCPKTGRVVVVHDGRRRVKIFDSGGGCAHQFGEKGDAAQDIRYPVDVTITNDCHVVVTDAGDRSIKVFDFFGQIKLVIGGQFSLPWGVETTPQNGIVVTDAEAGSLHLLDVDFAEGVLRRTERLQAHLCNPRGVAVSWLTGAIAVLEHPLALGTGVCSTRVKVFSSSMQLVGQVDTFGLSLYFPSKITASAVTFDHQGNVIVADTSGPAILCLGKPEEFPVPKPMVTHGLSHPVALTFTKENSLLVLDTASHSIKVYKVDWG [F33S] was tested. Which “effect of a mutation on the interaction” value did it give?
A: Its value is “decreasing interaction”.

Q: Which “effect of a mutation on the interaction” value does the source give for MAAEASESGPALHELMREAEISLLECKVCFEKFGHRQQRRPRNLSCGHVVCLACVAALAHPRTLALECPFCRRACRGCDTSDCLPVLHLIELLGSALRQSPAAHRAAPSAPGALTCHHTFGGWGTLVNPTGLALCPKTGRVVVVHDGRRRVKIFDSGGGCAHQFGEKGDAAQDIRYPVDVTITNDCHVVVTDAGDRSIKVFDFFGQIKLVIGGQFSLPWGVETTPQNGIVVTDAEAGSLHLLDVDFAEGVLRRTERLQAHLCNPRGVAVSWLTGAIAVLEHPLALGTGVCSTRVKVFSSSMPLVGQVDTFGLSLYFPSKITASAVTFDHQGNVIVADTSGPAILCLGKPEEFPVPKPMVTHGLSHPVALTFTKENSLLVLDTASHSIKVYKVDWG [Q302P] here?
A: Its value is “decreasing interaction”.
